Measured values as given in US20250135039A1, “INHIBITOR-RESISTANT MGMT MODIFICATIONS AND MODIFICATION OF MGMT-ENCODING NUCLEIC ACIDS” (Ensoma, Inc., priority 2022, published 2025).

System: U251 human glioblastoma cell line
Assay: in vitro FM-HCR assay of MGMT activity (mPlum O^6MeG reporter plasmid)
Type: cell-based
Details: for Reporter expression (%) mean, O^6BG: 100 μM O^6BG; for Reporter expression (%) mean, O^6BG / Reporter expression (%) mean, DMSO: U251 cells, flow cytometry 24 h after transfection, damaged/undamaged reporter, inversely related to MGMT activity; for Reporter expression (%) mean, DMSO: 0.1% DMSO; for MGMT activity (a.u.) DMSO / MGMT activity (% of WT) DMSO: DMSO condition; for MGMT activity (a.u.) DMSO / MGMT activity (a.u.) O^6BG: determined from percent reporter expression; for MGMT activity (% of WT) DMSO / MGMT activity (% of WT) O^6BG: relative to wild-type MGMT in same condition; for Relative MGMT activity (%): MGMT activity (a.u.) in O^6BG divided by DMSO x 100, higher values indicate resistance; for MGMT activity (a.u.) O^6BG / MGMT activity (% of WT) O^6BG: O^6BG condition; for Ratio percent reporter expression (O^6BG/DMSO): lower values indicate resistance to O^6BG; for O^6BG resistance relative to WT (%): percentage difference in relative MGMT activity between variant and wild-type MGMT
Description: The present Example includes, in part, an in vitro fluorescence multiplex host cell reactivation (FM-HCR) assay in which a reporter plasmid with O^6MeG-containing oligonucleotides is used. The oligonucleotides induce transcription errors that lead to expression of fluorescent mPlum protein. Functional MGMT will repair the O^6MeG sites and reduce mPlum expression. This represents a rapid and validated assay system to assess intracellular activity of MGMT. Further description of certain such assays is found in Nagel (2014 PNAS USA 111 (18): E1823-32, which is incorporated herein by reference.
The present Example uses an in vitro FM-HCR assay in which a reporter plasmid with 0° MeG-containing oligonucleotides is used to assay MGMT activity in cells. The O^6MeG-containing oligonucleotides induce transcription errors that lead to expression of fluorescent mPlum protein. Functional MGMT will repair the O'MeG sites and reduce mPlum expression. This represents a rapid and validated assay system to assess intracellular activity of MGMT. Further description of certain such assays is found in Nagel et al., 2014 PNAS USA 111 (18): E1823-32 and Piett et al., 2021 Nat. Protoc. 16 (9): 4265-4298, each of which is incorporated herein by reference.
The in vitro FM-HCR assay was performed using the U251 human glioblastoma cell line. The cells were cultured in DMEM with 10% FBS and passaged every three days.
To express MGMT variants in the cells, plasmids encoding each MGMT variant were designed and generated by either de novo synthesis or cloning into the pTwist EF1 Alpha Puro vector at the HindII-BamHI multiple cloning site. The pTwist EF1 Alpha Puro plasmid vector drives expression of the MGMT transcript from a human EF1-alpha promoter including intron 1 and an SV40 polyadenylation signal. Plasmids encoding the MGMT variants were purified using standard molecular biology techniques from E. coli with low endotoxins. Plasmids encoding wild-type MGMT or O^6BG-resistant MGMT^P140K were also designed and generated for use as controls.
To perform the in vitro FM-HCR assay, U251 cells were seeded in 12-well plates at a density of 50,000 cells per well in 1 mL culture media. The following day, the media was changed to 1 mL of culture media containing O^6BG (100 μM O^6BG and 0.1% DMSO final) or 0.1% DMSO; and the cells were transfected with 1,000 ng of a plasmid cocktail using Lipofectamine 3000 (ThermoFisher Scientific) at 1.8 μL Lipofectamine 3000 Reagent and 2 μL P3000 reagent in Opti-MEM medium (ThermoFisher Scientific). […] For the “undamaged” condition, the plasmid cocktail replaced the mPlum O^6MeG reporter plasmid with 100 ng of a plasmid expressing mPlum. The plasmid encoding BFP was used as an internal transfection control. For transfections where no MGMT encoding plasmid is used (no pMGMT), 250 ng of additional carrier plasmid was used to maintain a total DNA amount of 1,000 ng in each transfection. Four hours after transfection, the transfection medium was changed.
All transfected cells were analyzed by flow cytometry at 24-hours after transfection. Data was analyzed as previously described in Nagel et al., 2014 PNAS USA 111 (18): E1823-32 and Piett et al., 2021 Nat. Protoc. 16 (9): 4265-4298. For each condition, normalized reporter expression was determined by taking the product of the mPlum-positive cell count and the mean mPlum fluorescence intensity in mPlum-positive cells and dividing it by the product of the BFP-positive cell count and the mean BFP fluorescence intensity in BFP-positive cells. Next, for each MGMT variant, the percent reporter expression was determined by taking the normalized reporter expression in the “damaged” condition and dividing it by the normalized reporter expression in the “undamaged” condition, and then multiplying by 100 to obtain a percent value. […]

Molecule | Reporter expression (%) mean, O^6BG [%] | Reporter expression (%) mean, DMSO [%] | MGMT activity (a.u.) DMSO [a.u.] | MGMT activity (% of WT) DMSO | Relative MGMT activity (%) | MGMT activity (a.u.) O^6BG [a.u.] | MGMT activity (% of WT) O^6BG | Ratio percent reporter expression (O^6BG/DMSO) | O^6BG resistance relative to WT (%)
M134V: MGMT polypeptide with mutation M134V (protein) MDKDCEMKRTTLDSPLGKLELSGCEQGLHEIKLLGKGTSAADAVEVPAPAAVLGGPEPLMQCTAWLNAYFHQPEAIEEFPVPALHHPVFQQESFTRQVLWKLLKVVKFGEVISYQQLAALAGNPKAARAVGGAVRGNPVPILIPCHRVVCSSGAVGNYSGGLAVKEWLLAHEGHRLGKPGLGGSSGLAGAWLKGAGATSGSPPAGRN | 66.0 | 17.8 | 5.63 | 104.2 % of WT | 26.9 | 1.52 | 106.1 % of WT | 3.72 | 1.8
R135T: MGMT polypeptide with mutation R135T (protein) MDKDCEMKRTTLDSPLGKLELSGCEQGLHEIKLLGKGTSAADAVEVPAPAAVLGGPEPLMQCTAWLNAYFHQPEAIEEFPVPALHHPVFQQESFTRQVLWKLLKVVKFGEVISYQQLAALAGNPKAARAVGGAMTGNPVPILIPCHRVVCSSGAVGNYSGGLAVKEWLLAHEGHRLGKPGLGGSSGLAGAWLKGAGATSGSPPAGRN | 101.7 | 27.3 | 3.66 | 67.7 % of WT | 26.9 | 0.98 | 68.9 % of WT | 3.72 | 1.7
M134Y: MGMT polypeptide with mutation M134Y (protein) MDKDCEMKRTTLDSPLGKLELSGCEQGLHEIKLLGKGTSAADAVEVPAPAAVLGGPEPLMQCTAWLNAYFHQPEAIEEFPVPALHHPVFQQESFTRQVLWKLLKVVKFGEVISYQQLAALAGNPKAARAVGGAYRGNPVPILIPCHRVVCSSGAVGNYSGGLAVKEWLLAHEGHRLGKPGLGGSSGLAGAWLKGAGATSGSPPAGRN | 106.3 | 108.0 | 0.93 | 17.1 % of WT | 101.6 | 0.94 | 65.8 % of WT | 0.98 | 284.3
N137D: MGMT polypeptide with mutation N137D (protein) MDKDCEMKRTTLDSPLGKLELSGCEQGLHEIKLLGKGTSAADAVEVPAPAAVLGGPEPLMQCTAWLNAYFHQPEAIEEFPVPALHHPVFQQESFTRQVLWKLLKVVKFGEVISYQQLAALAGNPKAARAVGGAMRGDPVPILIPCHRVVCSSGAVGNYSGGLAVKEWLLAHEGHRLGKPGLGGSSGLAGAWLKGAGATSGSPPAGRN | 80.7 | 52.3 | 1.91 | 35.4 % of WT | 64.9 | 1.24 | 86.8 % of WT | 1.54 | 145.5
R135G: MGMT polypeptide with mutation R135G (protein) MDKDCEMKRTTLDSPLGKLELSGCEQGLHEIKLLGKGTSAADAVEVPAPAAVLGGPEPLMQCTAWLNAYFHQPEAIEEFPVPALHHPVFQQESFTRQVLWKLLKVVKFGEVISYQQLAALAGNPKAARAVGGAMGGNPVPILIPCHRVVCSSGAVGNYSGGLAVKEWLLAHEGHRLGKPGLGGSSGLAGAWLKGAGATSGSPPAGRN | 106.0 | 20.0 | 5.00 | 92.5 % of WT | 18.9 | 0.94 | 66.0 % of WT | 5.30 | −28.6
R135L: MGMT polypeptide with mutation R135L (protein) MDKDCEMKRTTLDSPLGKLELSGCEQGLHEIKLLGKGTSAADAVEVPAPAAVLGGPEPLMQCTAWLNAYFHQPEAIEEFPVPALHHPVFQQESFTRQVLWKLLKVVKFGEVISYQQLAALAGNPKAARAVGGAMLGNPVPILIPCHRVVCSSGAVGNYSGGLAVKEWLLAHEGHRLGKPGLGGSSGLAGAWLKGAGATSGSPPAGRN | 82.5 | 42.8 | 2.34 | 43.3 % of WT | 51.8 | 1.21 | 84.8 % of WT | 1.93 | 96.1
M134W: MGMT polypeptide with mutation M134W (protein) MDKDCEMKRTTLDSPLGKLELSGCEQGLHEIKLLGKGTSAADAVEVPAPAAVLGGPEPLMQCTAWLNAYFHQPEAIEEFPVPALHHPVFQQESFTRQVLWKLLKVVKFGEVISYQQLAALAGNPKAARAVGGAWRGNPVPILIPCHRVVCSSGAVGNYSGGLAVKEWLLAHEGHRLGKPGLGGSSGLAGAWLKGAGATSGSPPAGRN | 112.3 | 103.5 | 0.97 | 17.9 % of WT | 92.1 | 0.89 | 62.3 % of WT | 1.09 | 248.6
R135K: MGMT polypeptide with mutation R135K (protein) MDKDCEMKRTTLDSPLGKLELSGCEQGLHEIKLLGKGTSAADAVEVPAPAAVLGGPEPLMQCTAWLNAYFHQPEAIEEFPVPALHHPVFQQESFTRQVLWKLLKVVKFGEVISYQQLAALAGNPKAARAVGGAMKGNPVPILIPCHRVVCSSGAVGNYSGGLAVKEWLLAHEGHRLGKPGLGGSSGLAGAWLKGAGATSGSPPAGRN | 84.3 | 13.3 | 7.50 | 138.8 % of WT | 15.8 | 1.19 | 83.0 % of WT | 6.33 | −40.2
